The text below walks through data of patent publication US5641629, “Spectroscopically detectable nucleic acid ligands”.

The target of data set [1] is T1, serum albumin (HSA) (Homo sapiens, UniProt P02768 P02768:25-609). Nature of the data set: FP; HSA up to 1080 nM. To be noted: tags: Sigma; label: fluorescein tethered at the T7 phosphorothioate via iodoacetamide. Here is the method: A thrombin solution was prepared at 600 nM for the highest concentration in the same buffer as was used for Compound 1 in Example 3. Serial dilutions of this solution were then prepared to give a range of concentrations from 0.045 nM to 600 nM.
Compound 6 was then added to a sample of each dilution of thrombin solution and HSA solution to a concentration of 2.3 nM, then vortexed and let stand at room temperature for 15 minutes before fluorescence measurement was taken as described in Example 3. The data from the measurements is presented below as the average of three readings at ambient temperature.

Data set [2] concerns the target T2, alpha-thrombin (Homo sapiens, UniProt P00734;P00734 P00734:328-363,P00734:364-622). As to the kind of experiment: FP; 140 mM NaCl, 20 mM Tris acetate, 1 mM CaCl2, 5 mM KCl, 1 mM MgCl2, pH 7.4, room temperature; delta mP +55.
The target of data set [3] is T2, alpha-thrombin. As to the kind of experiment: FP; 140 mM NaCl, 20 mM Tris acetate, 1 mM CaCl2, 5 mM KCl, 1 mM MgCl2, pH 7.4, room temperature; delta mP +25.
The target in data set [4] is T1, serum albumin (HSA). Nature of the data set: FP; HSA up to 150 nM. To be noted: tags: Sigma; label: 5'-fluorescein (6-FAM, C6 linker). Here is the method:
(§1) The fluorescence polarization of the reaction mixtures was measured directly using 12×75 mm borosilicate glass test tubes. The maximum change in fluorescence polarization was reported as ΔmP (millipolarization units). As reported below in Table 1, the data represent the average of three readings at ambient temperature.

In data set [5] the target is T1, serum albumin (HSA). Nature of the data set: FP; HSA up to 660 nM. To be noted: tags: Sigma; label: 5'-thiazole orange (C3 linker). As to the method: as §1
For data set [6], the target named is T2, alpha-thrombin. Nature of the data set: FP; 140 mM NaCl, 20 mM Tris acetate, 1 mM CaCl2, 5 mM KCl, 1 mM MgCl2, pH 7.4, room temperature; delta mP +80.
The next data set addresses neutrophil elastase (Homo sapiens, UniProt P08246 P08246:30-267). As to the kind of experiment: FP; 150 mM NaCl, 2 mM MgCl2, 6 mM KCl, 10 mM Tris, pH 7.0, room temperature; delta mP +30. To be noted: tags: Athens Research Technology; label: 5'-fluorescein (6-FAM, C6 linker). Here is the method: An elastase solution was prepared from human neutrophil elastase (Athens Research Technology) at 180 nM for the highest concentration in a buffer of 150 mM NaCl, 2 mM MgCl_2, 6 mM KCl, 10 mM TRIS, pH 7.0. Serial dilutions of this solution were then prepared to give a range of concentrations from 0.027 nM to 180 nM.
as §1

Data set [7] addresses T2, alpha-thrombin. Nature of the data set: FP; 140 mM NaCl, 20 mM Tris acetate, 1 mM CaCl2, 5 mM KCl, 1 mM MgCl2, pH 7.4, room temperature; delta mP +52.
Data set [8] concerns the target T1, serum albumin (HSA). As to the kind of experiment: FP; HSA up to 247 nM; anisotropy 0.04429 free, 0.04433 with HSA. To be noted: tags: Sigma; label: 5'-fluorescein (6-FAM, C6 linker).
Data set [9] addresses T1, serum albumin (HSA). Nature of the data set: FP; no detectable binding by fluorescence anisotropy. Conditions: tags: Sigma; label: fluorescein (C6 linker). As to the method:
Compound 4 was the control prepared in Example 1, and as such was added to the thrombin dilutions and HSA dilutions at the same respective concentrations of Compounds 1, 2 and 3 above. Similarly, Compound 4 was then subjected to the same conditions as Compounds 1, 2 and 3, and analyzed with an SLM instrument to determine anisotropy values as described in Example 4 below.
(In general: Polarisation of emitted light reports the rotation of a fluorescent probe.)

Data set [10] concerns the target T2, alpha-thrombin. Nature of the data set: FP; no detectable binding; anisotropy 0.0403 free, 0.0445 with thrombin.

Chain of neutrophil elastase (P08246 30-267, one chain of several): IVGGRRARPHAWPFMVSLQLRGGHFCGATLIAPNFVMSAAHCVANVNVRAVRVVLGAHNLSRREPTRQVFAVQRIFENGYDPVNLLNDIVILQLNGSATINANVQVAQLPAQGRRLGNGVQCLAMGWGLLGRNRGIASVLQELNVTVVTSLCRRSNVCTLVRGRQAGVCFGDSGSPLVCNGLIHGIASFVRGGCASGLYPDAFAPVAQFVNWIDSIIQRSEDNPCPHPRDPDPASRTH

B1: Compound 6 (ssDNA)
DNA: GGTTGGTGTGGTTGG
modifications: PS between G6 and T7
For the molecule B1, in the data set with serum albumin (HSA) [1], the binding result is on record as “no binding”. The same molecule showed a Kd with alpha-thrombin [2] of 11.1 nM.

B2: Compound 2 (ssDNA)
DNA: CAGTCCGTGGTAGGGCAGGTTGGGGTGACTTCGTGGAA
In the data set with alpha-thrombin [3], B2 returned a Kd of 1.5 nM. For the same molecule, the binding result with serum albumin (HSA) [4] is “no binding”.

B3: Compound 3 (ssDNA)
DNA: GGTTGGTGTGGTTGG
On to B3, for which the binding result with serum albumin (HSA) [5] is listed as “no binding”. In the data set with alpha-thrombin [6], this molecule gave a dissociation constant Kd of 5.7 nM.

B4: Compound 5 (ssDNA)
DNA: TAGCGATACTGCGTGGGTTGGGGCGGGTAGGGCCAGCAGTCTCGT
The molecule B4 yielded a Kd with neutrophil elastase of 2.6 nM.

B5: Compound 1 (ssDNA)
DNA: GGTTGGTGTGGTTGG
In the data set with alpha-thrombin [7], B5 gave a Kd of 2 nM. The binding result with serum albumin (HSA) [8] is reported as “no binding”.

B6: Compound 4 (scrambled control) (ssDNA)
DNA: GGTGGTGGTTGTGGT
Consider B6, for which the binding result with serum albumin (HSA) [9] and with alpha-thrombin [10] was “no binding” each time.

What is called Kd is the concentration at which binding is half-saturated. Higher therefore signals lower affinity.
